Results on 5 molecules are retold here after US20150024380A1.

Assay [1] has as its target anti-HCV antibodies of positive control sample C1 (commercial serum pool, Trina Bioreactives AG). The assay can be described thus: Vidas anti-HCV immunoassay: index of the positive control on coated HCV Core/NS3/NS4 antigens with 1 ug/ml peptide added (competition).
Assay [2] deals with antibodies of human serum sample 295 (HCV-negative serum with interference) (human). The assay is described as follows: Vidas anti-HCV immunoassay: index of the serum on coated HCV Core/NS3/NS4 antigens with 1 ug/ml peptide added (competition).
The target of assay [3] is antibodies of human serum sample F25 (HCV-negative serum with interference) (human). Described as above.
Assay [4] deals with anti-HCV antibodies of positive control sample C1 (commercial serum pool, Trina Bioreactives AG). The assay can be described thus: Vidas anti-HCV immunoassay: index of the positive control on coated HCV Core/NS3/NS4 antigens with 5 ug/ml peptide added (competition).
In assay [5] the target is antibodies of human serum sample 175 1811 (HCV-negative serum with interference) (human). The assay is described as follows: Vidas anti-HCV immunoassay: index of the serum on coated HCV Core/NS3/NS4 antigens with 5 ug/ml peptide added (competition).
Assay [6] has as its target antibodies of human serum sample F53 3009 (HCV-negative serum with interference) (human). Described as above.
In assay [7] the target is antibodies of human serum sample H48 (HCV-negative serum with interference) (human). The description is as above.
The target of assay [8] is antibodies of human serum sample M43 (HCV-negative serum with interference) (human). The description is as above.
Assay [9] addresses antibodies of human serum sample 801 1409 (HCV-negative serum with interference) (human). The description is as above.
Assay [10] concerns the target antibodies of human serum sample 284 2408 (HCV-negative serum with interference) (human). The description is as above.
The target in assay [11] is antibodies of human serum sample 498 (HCV-negative serum with interference) (human). The assay is described as above.

B1: peptide E8E (HCV) (peptide)
peptide: ECSQHLPYIE
Consider B1, for which the Index in assay [1] is 2.92 index; in assay [2] it was 0.9 index; in assay [3] it was 0.85 index.

B2: peptide Y7E-1 (Staphylococcus aureus) (peptide)
peptide: YSPTHYVPE
For B2, the Index in [4] amounted to 3.02 index; in assay [5], 0.47 index; in [6] it was 0.32 index; in [7] it was 0.88 index; in assay [8] it was 0.17 index; in assay [9], 0.71 index. Further, the Index in assay [10] is 0.86 index; in assay [11], 0.14 index.

B3: peptide V7E (HCV) (peptide)
peptide: VSPTHYVPE
Consider B3, for which the Index was found to be 3.06 index in [4]; 0.49 index in [5]; 0.39 index in assay [6]; 1.17 index in assay [7]; 0.42 index in assay [8]; 1.04 index in assay [9]. Also, the Index turned out to be 1.51 index in assay [10] and 0.35 index in [11].

B4: peptide A6M (Streptococcus pneumoniae) (peptide)
peptide: APYIEKGM
With B4, the figures for the Index in assay [1], in [2] and in assay [3] were 3.05 index, 1.04 index and 2.9 index, respectively.

B5: peptide A8E (Streptococcus pneumoniae) (peptide)
peptide: AQKRLAPYIE
With B5, the Index in [1] was 3.02 index; in [2] it was 0.95 index; in [3], 0.41 index.
